# Reference: the supplement of paper PMC11246515
# ± gives the standard deviation of the averaged measurements.
# Assay: total protein half-life in vivo (active degradation + dilution); higher = more stable protein
# [1] = wild type E. coli NCM3722, growth: N-lim chemostat, doubling time 12 h
# [2] = E. coli NCM3722 delta-clpP delta-lon delta-hslV, growth: N-lim chemostat, doubling time 6 h
# [3] = wild type E. coli NCM3722, growth: P-lim chemostat, doubling time 12 h
# [4] = E. coli NCM3722 delta-clpP, growth: N-lim chemostat, doubling time 6 h
# [5] = E. coli NCM3722 delta-hslV, growth: N-lim chemostat, doubling time 6 h
# [6] = E. coli NCM3722 delta-lon, growth: N-lim chemostat, doubling time 6 h
# [7] = E. coli NCM3722 delta-smpB, growth: N-lim chemostat, doubling time 6 h
# [8] = wild type E. coli NCM3722, growth: C-lim chemostat, doubling time 3 h
# [9] = wild type E. coli NCM3722, growth: C-lim chemostat, doubling time 6 h
# [10] = wild type E. coli NCM3722, growth: C-lim chemostat, doubling time 12 h
# [11] = wild type E. coli NCM3722, growth: N-lim chemostat, doubling time 6 h
# [12] = wild type E. coli NCM3722, growth: P-lim chemostat, doubling time 6 h
sequence,measurement,setting,value
MNKLQSYFIASVLYVMTPHAFAQGTVTIYLPGEQQTLSVGPVENVVQLVTQPQLRDRLWWPGALLTDSAAKAKALKDYQHVMAQLASWEAEADDDVAATIKSVRQQLLNLNITGRLPVKLDPDFVRVDENSNPPLVGDYTLYTVQRPVTITLLGAVSGAGQLPWQAGRSVTDYLQDHPRLAGADKNNVMVITPEGETVVAPVALWNKRHVEPPPGSQLWLGFSAHVLPEKYADLNDQIVSVLTQRVPD,total protein half-life in vivo,[1],7.71 h
MTDKMQSLALAPVGNLDSYIRAANAWPMLSADEERALAEKLHYHGDLEAAKTLILSHLRFVVHIARNYAGYGLPQADLIQEGNIGLMKAVRRFNPEVGVRLVSFAVHWIKAEIHEYVLRNWRIVKVATTKAQRKLFFNLRKTKQRLGWFNQDEVEMVARELGVTSKDVREMESRMAAQDMTFDLSSDDDSDSQPMAPVLYLQDKSSNFADGIEDDNWEEQAANRLTDAMQGLDERSQDIIRARWLDEDNKSTLQELADRYGVSAERVRQLEKNAMKKLRAAIEA [P0AGB3],total protein half-life in vivo,[2],0.775 ± 0.044 h
same,total protein half-life in vivo,[3],0.858 h
MAYRSAPLYEDVIWRTHLQPQDPTLAQAVRATIAKHREHLLEFIRLDEPAPLNAMTLAQWSSPNVLSSLLAVYSDHIYRNQPMMIRENKPLISLWAQWYIGLMVPPLMLALLTQEKALDVSPEHFHAEFHETGRVACFWVDVCEDKNATPHSPQHRMETLISQALVPVVQALEATGEINGKLIWSNTGYLINWYLTEMKQLLGEATVESLRHALFFEKTLTNGEDNPLWRTVVLRDGLLVRRTCCQRYRLPDVQQCGDCTLK,total protein half-life in vivo,[2],3.38 ± 1.1 h
MVKLPPLSLYIHIPWCVQKCPYCDFNSHALKGEVPHDDYVQHLLNDLDNDVAYAQGREVKTIFIGGGTPSLLSGPAMQTLLDGVRARLPLAADAEITMEANPGTVEADRFVDYQRAGVNRISIGVQSFSEEKLKRLGRIHGPQEAKRAAKLASGLGLRSFNLDLMHGLPDQSLEEALGDLRQAIELNPPHLSWYQLTIEPNTLFGSRPPVLPDDDALWDIFEQGHQLLTAAGYQQYETSAYAKPGYQCQHNLNYWRFGDYIGIGCGAHGKVTFPDGRILRTTKTRHPRGFMQGRYLESQRDVEATDKPFEFFMNRFRLLEAAPRVEFIAYTGLCEDVIRPQLDEAIAQGYLTECADYWQITEHGKLFLNSLLELFLAE,total protein half-life in vivo,[2],4.14 ± 1.6 h
same,total protein half-life in vivo,[4],5.76 ± 2.5 h
same,total protein half-life in vivo,[5],4.32 ± 0.36 h
same,total protein half-life in vivo,[6],4.24 ± 0.52 h
same,total protein half-life in vivo,[7],3.734 ± 0.022 h
same,total protein half-life in vivo,[8],3.01 ± 0.05 h
same,total protein half-life in vivo,[9],4.82 ± 0.96 h
same,total protein half-life in vivo,[10],8.1 ± 1.6 h
same,total protein half-life in vivo,[11],4.03 ± 0.08 h
same,total protein half-life in vivo,[1],6.81 ± 0.47 h
same,total protein half-life in vivo,[12],5.41 ± 0.25 h
same,total protein half-life in vivo,[3],10.4 ± 0.86 h
MKKFAAVIAVMALCSAPVMAAEQGGFSGPSATQSQAGGFQGPNGSVTTVESAKSLRDDTWVTLRGNIVERISDDLYVFKDASGTINVDIDHKRWNGVTVTPKDTVEIQGEVDKDWNSVEIDVKQIRKVNP [P0ADU5],total protein half-life in vivo,[2],3.85 ± 0.19 h
same,total protein half-life in vivo,[4],5.07 ± 0.71 h
same,total protein half-life in vivo,[5],5.86 ± 0.11 h
same,total protein half-life in vivo,[6],6.2 ± 0.35 h
same,total protein half-life in vivo,[7],5.91 ± 0.28 h
same,total protein half-life in vivo,[8],2.89 ± 0.69 h
same,total protein half-life in vivo,[9],5.83 ± 0.75 h
same,total protein half-life in vivo,[10],6.74 ± 1.2 h
same,total protein half-life in vivo,[11],6.22 ± 0.79 h
same,total protein half-life in vivo,[1],11.8 ± 0.34 h
same,total protein half-life in vivo,[12],4.72 ± 0.64 h
same,total protein half-life in vivo,[3],7.98 ± 1.5 h
MESLNQFVNSLAPKLSHWRRDFHHYAESGWVEFRTATLVAEELHQLGYSLALGREVVNESSRMGLPDEFTLQREFERARQQGALAQWIAAFEGGFTGIVATLDTGRPGPVMAFRVDMDALDLSEEQDVSHRPYRDGFASCNAGMMHACGHDGHTAIGLGLAHTLKQFESGLHGVIKLIFQPAEEGTRGARAMVDAGVVDDVDYFTAVHIGTGVPAGTVVCGSDNFMATTKFDAHFTGTAAHAGAKPEDGHNALLAAAQATLALHAIAPHSEGASRVNVGVMQAGSGRNVVPASALLKVETRGASDVINQYVFDRAQQAIQGAATMYGVGVETRLMGAATASSPSPQWVAWLQSQAAQVAGVNQAIERVEAPAGSEDATLMMARVQQHQGQASYVVFGTQLAAGHHNEKFDFDEQVLAIAVETLARTALNFPWTRGI,total protein half-life in vivo,[2],6.21 ± 1.1 h
same,total protein half-life in vivo,[4],2.65 ± 0.05 h
same,total protein half-life in vivo,[5],3.12 ± 0.28 h
same,total protein half-life in vivo,[6],3.18 ± 0.22 h
same,total protein half-life in vivo,[7],2.86 ± 0.093 h
same,total protein half-life in vivo,[8],1.71 ± 0.65 h
same,total protein half-life in vivo,[9],5.22 h
same,total protein half-life in vivo,[10],5.67 ± 0.081 h
same,total protein half-life in vivo,[11],2.9 ± 0.053 h
same,total protein half-life in vivo,[1],4.45 ± 0.16 h
same,total protein half-life in vivo,[12],1.87 h
same,total protein half-life in vivo,[3],6.79 h
MTEQQISRTQAWLESLRPKTLPLAFAAIIVGTALAWWQGHFDPLVALLALITAGLLQILSNLANDYGDAVKGSDKPDRIGPLRGMQKGVITQQEMKRALIITVVLICLSGLALVAVACHTLADFVGFLILGGLSIIAAITYTVGNRPYGYIGLGDISVLVFFGWLSVMGSWYLQAHTLIPALILPATACGLLATAVLNINNLRDINSDRENGKNTLVVRLGEVNARRYHACLLMGSLVCLALFNLFSLHSLWGWLFLLAAPLLVKQARYVMREMDPVAMRPMLERTVKGALLTNLLFVLGIFLSQWAA,total protein half-life in vivo,[4],5.652 ± 0.0067 h
same,total protein half-life in vivo,[5],6.01 h
same,total protein half-life in vivo,[9],6.18 h
same,total protein half-life in vivo,[10],12.6 h
MLELNFSQTLGNHCLTINETLPANGITAIFGVSGAGKTSLINAISGLTRPQKGRIVLNGRVLNDAEKGICLTPEKRRVGYVFQDARLFPHYKVRGNLRYGMSKSMVDQFDKLVALLGIEPLLDRLPGSLSGGEKQRVAIGRALLTAPELLLLDEPLASLDIPRKRELLPYLQRLTREINIPMLYVSHSLDEILHLADRVMVLENGQVKAFGALEEVWGSSVMNPWLPKEQQSSILKVTVLEHHPHYAMTALALGDQHLWVNKLDEPLQAALRIRIQASDVSLVLQPPQQTSIRNVLRAKVVNSYDDNGQVEVELEVGGKTLWARISPWARDELAIKPGLWLYAQIKSVSITA,total protein half-life in vivo,[2],5.74 ± 0.84 h
same,total protein half-life in vivo,[4],6.32 ± 1.6 h
same,total protein half-life in vivo,[5],6.25 ± 0.98 h
same,total protein half-life in vivo,[6],5.26 ± 0.55 h
same,total protein half-life in vivo,[7],5.04 ± 0.092 h
same,total protein half-life in vivo,[8],2.76 ± 0.18 h
same,total protein half-life in vivo,[9],5.77 ± 0.64 h
same,total protein half-life in vivo,[10],11 ± 1.2 h
same,total protein half-life in vivo,[11],5.676 ± 0.014 h
same,total protein half-life in vivo,[1],10.2 ± 1.3 h
same,total protein half-life in vivo,[12],6.12 ± 0.077 h
MYYGFDIGGTKIALGVFDSGRQLQWEKRVPTPRDSYDAFLDAVCELVAEADQRFGCKGSVGIGIPGMPETEDGTLYAANVPAASGKPLRADLSARLDRDVRLDNDANCFALSEAWDDEFTQYPLVMGLILGTGVGGGLIFNGKPITGKSYITGEFGHMRLPVDALTMMGLDFPLRRCGCGQHGCIENYLSGRGFAWLYQHYYHQPLQAPEIIALYDQGDEQARAHVERYLDLLAVCLGNILTIVDPDLVVIGGGLSNFPAITTQLADRLPRHLLPVARVPRIERARHGDAGGMRGAAFLHLTD,total protein half-life in vivo,[2],4.42 ± 0.85 h
same,total protein half-life in vivo,[5],3.76 ± 0.45 h
same,total protein half-life in vivo,[6],4.37 ± 0.18 h
same,total protein half-life in vivo,[7],4.06 ± 0.31 h
same,total protein half-life in vivo,[8],2.86 ± 0.4 h
same,total protein half-life in vivo,[9],4.98 ± 0.17 h
same,total protein half-life in vivo,[10],9.97 ± 0.28 h
same,total protein half-life in vivo,[11],3.9761 ± 0.0021 h
same,total protein half-life in vivo,[1],6.67 ± 1.1 h
same,total protein half-life in vivo,[12],6.09 ± 0.9 h
same,total protein half-life in vivo,[3],11.7 ± 0.2 h
